Reference: the supplement of paper PMC11246515
± gives the standard deviation of the averaged measurements.

Test: total protein half-life in vivo (active degradation + dilution); higher = more stable protein
[1] = E. coli NCM3722 delta-clpP delta-lon delta-hslV, growth: N-lim chemostat, doubling time 6 h
[2] = E. coli NCM3722 delta-clpP, growth: N-lim chemostat, doubling time 6 h
[3] = E. coli NCM3722 delta-hslV, growth: N-lim chemostat, doubling time 6 h
[4] = E. coli NCM3722 delta-lon, growth: N-lim chemostat, doubling time 6 h
[5] = E. coli NCM3722 delta-smpB, growth: N-lim chemostat, doubling time 6 h
[6] = wild type E. coli NCM3722, growth: C-lim chemostat, doubling time 3 h
[7] = wild type E. coli NCM3722, growth: C-lim chemostat, doubling time 6 h
[8] = wild type E. coli NCM3722, growth: C-lim chemostat, doubling time 12 h
[9] = wild type E. coli NCM3722, growth: N-lim chemostat, doubling time 6 h
[10] = wild type E. coli NCM3722, growth: N-lim chemostat, doubling time 12 h
[11] = wild type E. coli NCM3722, growth: P-lim chemostat, doubling time 6 h
[12] = wild type E. coli NCM3722, growth: P-lim chemostat, doubling time 12 h

Sequence: MWQAISRLLSEQLGEGEIELRNELPGGEVHAAWHLRYAGHDFFVKCDERELLPGFTAEADQLELLSRSKTVTVPKVWAVGADRDYSFLVMDYLPPRPLDAHSAFILGQQIARLHQWSDQPQFGLDFDNALSTTPQPNTWQRRWSTFFAEQRIGWQLELAAEKGIAFGNIDAIVEHIQQRLASHQPQPSLLHGDLWSGNCALGPDGPYIFDPACYWGDRECDLAMLPLHTEQPPQIYDGYQSVSPLPADFLERQPVYQLYTLLNRARLFGGQHLVIAQQSLDRLLAA
- total protein half-life in vivo [1]: 4.14 ± 0.66 h
- total protein half-life in vivo [2]: 3.457 ± 0.023 h
- total protein half-life in vivo [3]: 3.84 ± 0.5 h
- total protein half-life in vivo [4]: 3.77 ± 0.099 h
- total protein half-life in vivo [5]: 3.3 ± 0.13 h
- total protein half-life in vivo [6]: 3.159 ± 0.0069 h
- total protein half-life in vivo [7]: 5.21 ± 0.11 h
- total protein half-life in vivo [8]: 9.56 ± 0.57 h
- total protein half-life in vivo [9]: 3.31 ± 0.31 h
- total protein half-life in vivo [10]: 5.08 ± 0.18 h
- total protein half-life in vivo [11]: 5.685 ± 0.017 h
- total protein half-life in vivo [12]: 11.2 ± 0.46 h

Sequence: MYDFVIIGGGIIGMSTAMQLIDVYPDARIALLEKESAPACHQTGHNSGVIHAGVYYTPGSLKAQFCLAGNRATKAFCDQNGIRYDNCGKMLVATSDLEMERMRALWERTAANGIEREWLNADELREREPNITGLGGIFVPSSGIVSYRDVTAAMAKIFQSRGGEIIYNAEVSGLNEHKNGVVIRTRQGGEYEASTLISCSGLMADRLVKMLGLEPGFIICPFRGEYFRLAPEHNQIVNHLIYPIPDPAMPFLGVHLTRMIDGSVTVGPNAVLAFKREGYRKRDFSFSDTLEILGSSGIRRVLQNHLRSGLGEMKNSLCKSGYLRLVQKYCPRLSLSDLQPWPAGVRAQAVSPDGKLIDDFLFVTTPRTIHTCNAPSPAATSAIPIGAHIVSKVQTLLASQSNPGRTLRAARSVDALHAAFNQ
- total protein half-life in vivo [1]: 5.44 ± 0.2 h
- total protein half-life in vivo [2]: 6.32 ± 1.6 h
- total protein half-life in vivo [3]: 5.3 ± 0.37 h
- total protein half-life in vivo [4]: 4.94 ± 0.065 h
- total protein half-life in vivo [5]: 4.58 ± 0.47 h
- total protein half-life in vivo [6]: 2.7 ± 0.3 h
- total protein half-life in vivo [7]: 5.48 ± 0.23 h
- total protein half-life in vivo [8]: 9.35 ± 0.39 h
- total protein half-life in vivo [9]: 5.4 ± 0.44 h
- total protein half-life in vivo [10]: 9.37 ± 0.29 h
- total protein half-life in vivo [11]: 4.51 ± 0.93 h
- total protein half-life in vivo [12]: 10.8 ± 0.21 h

Sequence: MYDYIIVGSGLFGAVCANELKKLNKKVLVIEKRNHIGGNAYTEDCEGIQIHKYGAHIFHTNDKYIWDYVNDLVEFNRFTNSPLAIYKDKLFNLPFNMNTFHQMWGVKDPQEAQNIINAQKKKYGDKVPENLEEQAISLVGEDLYQALIKGYTEKQWGRSAKELPAFIIKRIPVRFTFDNNYFSDRYQGIPVGGYTKLIEKMLEGVDVKLGIDFLKDKDSLASKAHRIIYTGPIDQYFDYRFGALEYRSLKFETERHEFPNFQGNAVINFTDANVPYTRIIEHKHFDYVETKHTVVTKEYPLEWKVGDEPYYPVNDNKNMELFKKYRELASREDKVIFGGRLAEYKYYDMHQVISAALYQVKNIMSTD
- total protein half-life in vivo [1]: 6.0745 ± 0.0011 h
- total protein half-life in vivo [2]: 3.11 h
- total protein half-life in vivo [4]: 4.59 ± 0.33 h
- total protein half-life in vivo [5]: 2.83 ± 0.48 h
- total protein half-life in vivo [9]: 3.52 h
- total protein half-life in vivo [12]: 11.8 h

Sequence: MYHDVSYLLSRLINGPLSLRQIYFASSNGPVPDLAYQVDFPRLEIVLEGEFVDTGAGATLVPGDVLYVPAGGWNFPQWQAPATTFSVLFGKQQLGFSVVQWDGKQYQNLAKQHVARRGPRIGSFLLQTLNEMQMQPQEQQTARLIVASLLSHCRDLLGSQIQTASRSQALFEAIRDYIDERYASALTRESVAQAFYISPNYLSHLFQKTGAIGFNEYLNHTRLEHAKTLLKGYDLKVKEVAHACGFVDSNYFCRLFRKNTERSPSEYRRQYHSQLTEKPTTPE
- total protein half-life in vivo [1]: 5.77 ± 0.063 h
- total protein half-life in vivo [2]: 3.94 h
- total protein half-life in vivo [3]: 4.1 h
- total protein half-life in vivo [4]: 5.72 ± 1.3 h
- total protein half-life in vivo [5]: 4.21 ± 0.49 h
- total protein half-life in vivo [6]: 2.6 h
- total protein half-life in vivo [7]: 6.09 ± 1.5 h
- total protein half-life in vivo [8]: 8.5207 ± 0.0056 h
- total protein half-life in vivo [9]: 3.8 ± 0.55 h
- total protein half-life in vivo [10]: 6.04 h
- total protein half-life in vivo [11]: 3.26 h
- total protein half-life in vivo [12]: 5.79 ± 0.83 h

Sequence: MYKQAVILLLMLFTASVSAALPARYMQTIENAAVWAQIGDKMVTVGNIRAGQIIAVEPTAASYYAFNFGFGKGFIDKGHLEPVQGRQKVEDGLGDLNKPLSNQNLVTWKDTPVYNAPSAGSAPFGVLADNLRYPILHKLKDRLNQTWYQIRIGDRLAYISALDAQPDNGLSVLTYHHILRDEENTRFRHTSTTTSVRAFNNQMAWLRDRGYATLSMVQLEGYVKNKINLPARAVVITFDDGLKSVSRYAYPVLKQYGMKATAFIVTSRIKRHPQKWNPKSLQFMSVSELNEIRDVFDFQSHTHFLHRVDGYRRPILLSRSEHNILFDFARSRRALAQFNPHVWYLSYPFGGFNDNAVKAANDAGFHLAVTTMKGKVKPGDNPLLLKRLYILRTDSLETMSRLVSNQPQG
- total protein half-life in vivo [1]: 5.86 ± 0.059 h
- total protein half-life in vivo [2]: 5.98 ± 0.23 h
- total protein half-life in vivo [3]: 5.24 ± 0.3 h
- total protein half-life in vivo [5]: 5.73 ± 0.38 h
- total protein half-life in vivo [7]: 4.78 h
- total protein half-life in vivo [8]: 12.5 h
- total protein half-life in vivo [9]: 5.58 ± 0.86 h
- total protein half-life in vivo [10]: 11.6 ± 3 h
- total protein half-life in vivo [11]: 5.64 h
- total protein half-life in vivo [12]: 12.4 h

Sequence: MYLYIETLKQRLDAINQLRVDRALAAMGPAFQQVYSLLPTLLHYHHPLMPGYLDGNVPKGICLYTPDETQRHYLNELELYRGMSVQDPPKGELPITGVYTMGSTSSVGQSCSSDLDIWVCHQSWLDSEERQLLQRKCSLLENWAASLGVEVSFFLIDENRFRHNESGSLGGEDCGSTQHILLLDEFYRTAVRLAGKRILWNMVPCDEEEHYDDYVMTLYAQGVLTPNEWLDLGGLSSLSAEEYFGASLWQLYKSIDSPYKAVLKTLLLEAYSWEYPNPRLLAKDIKQRLHDGEIVSFGLDPYCMMLERVTEYLTAIEDFTRLDLVRRCFYLKVCEKLSRERACVGWRRAVLSQLVSEWGWDEARLAMLDNRANWKIDQVREAHNELLDAMMQSYRNLIRFARRNNLSVSASPQDIGVLTRKLYAAFEALPGKVTLVNPQISPDLSEPNLTFIYVPPGRANRSGWYLYNRAPNIESIISHQPLEYNRYLNKLVAWAWFNGLLTSRTRLYIKGNGIVDLPKLQEMVADVSHHFPLRLPAPTPKALYSPCEIRHLAIIVNLEYDPTAAFRNQVVHFDFRKLDVFSFGENQNCLVGSVDLLYRNSWNEVRTLHFNGEQSMIEALKTILGKMHQDAAPPDSVEVFCYSQHLRGLIRTRVQQLVSECIELRLSSTRQETGRFKALRVSGQTWGLFFERLNVSVQKLENAIEFYGAISHNKLHGLSVQVETNHVKLPAVVDGFASEGIIQFFFEETQDENGFNIYILDESNRVEVYHHCEGSKEELVRDVSRFYSSSHDRFTYGSSFINFNLPQFYQIVKVDGREQVIPFRTKSIGNMPPANQDHDTPLLQQYFS
- total protein half-life in vivo [1]: 4.23 ± 0.18 h
- total protein half-life in vivo [2]: 3.635 ± 0.028 h
- total protein half-life in vivo [3]: 1.14 ± 0.25 h
- total protein half-life in vivo [4]: 1.04 ± 0.087 h
- total protein half-life in vivo [5]: 1.36 ± 0.081 h
- total protein half-life in vivo [6]: 0.845 ± 0.015 h
- total protein half-life in vivo [7]: 1.19 h
- total protein half-life in vivo [8]: 1.66 ± 0.22 h
- total protein half-life in vivo [9]: 1.27 ± 0.07 h
- total protein half-life in vivo [10]: 1.72 ± 0.053 h
- total protein half-life in vivo [11]: 2.155 ± 0.0068 h
- total protein half-life in vivo [12]: 3.73 ± 0.4 h

Sequence: MYQDKILVRQLGLQPYEPISQAMHEFTDTRDDSTLDEIWLVEHYPVFTQGQAGKAEHILMPGDIPVIQSDRGGQVTYHGPGQQVMYVLLNLKRRKLGVRELVTLLEQTVVNTLAELGIEAHPRADAPGVYVGEKKICSLGLRIRRGCSFHGLALNVNMDLSPFLRINPCGYAGMEMAKISQWKPEATTNNIAPRLLENILALLNNPDFEYITA
- total protein half-life in vivo [1]: 4.39 ± 0.44 h
- total protein half-life in vivo [2]: 4.08 ± 0.77 h
- total protein half-life in vivo [3]: 3.55 h
- total protein half-life in vivo [4]: > 8 h
- total protein half-life in vivo [5]: 3.73 ± 0.15 h
- total protein half-life in vivo [6]: 2.63 ± 0.15 h
- total protein half-life in vivo [7]: 6.03 ± 0.89 h
- total protein half-life in vivo [8]: 14.3 h
- total protein half-life in vivo [9]: 5.66 h
- total protein half-life in vivo [10]: 5.51 ± 1.4 h
- total protein half-life in vivo [11]: 5.14 ± 0.06 h
- total protein half-life in vivo [12]: 10.6 ± 0.37 h
